This data set is described as follows: label from the status in PepcDB records.
For “MDNLFYYMIIQNDRIQPIIVRQPQTVIIHSQPKLPITLDLPPQNIILKNEDPQPIIVRQSNPNIIIEKSQNDFYNHPNFHIGLHDKVNSMSDINNTNIKEQPIKDNMIEDMQNINNADTQFYYNNQNVINENNVLPTHYSYLNNGVFNKEHNYDPYNFTLYSNK”, the protein production entry was “failed”.

Consider “MDPAGASVASAIGGEGEKFAVGNIYSVKVITGDEFRGIGTKPRPGHLKNTRMVNASFITGLSYLGKTEDPLDSDNFSVDLNGLRAKEALAIRQAEADAERMGVGVTAEAQSIFDALSKTLPVQWENSDILVMKEVRVRSPYLSDCVFGGTDAANNRVKKVLELERRRLQLFGT”, for which the protein production result was “failed”.

Turning to “MDPAVFEEWMMIILVTVLIGFMGFIVWDLAKKSKAGKFGTLILFFVLGLGVLAFIIKSVVVGFLEGV”, the protein production entry was “failed”.

In the case of “MDPIESVEYNGFETSNGNVDHGWKKVVYPKRHRKQKQADQATANGGKTVASNGTVANGGDNVFRSLEEQAEDRRRRILAAKMTAIDSDDDGVVRSKHRSNGYGDDGYDFDGSDDEIATLKVEEVKKPKPKKEKKPKVSLPEAASKIDPLNLEAFLVEASESYASQPEIQLMRFADYFGRALSGVSSVQFPWVKMFKESPLSKLIEVPLAHIPEPVYKTSVDWINHRPIEALGAFVLWAFDCILTDLAAQQGGAKGGKKGGQQTTSKSQVAIFVALAMVLRRKPDALTNVLPTLRENPKYQGQDKLPVTVWMMAQASQGDIAVGLYSWAHNLLPVVGNKNCNPQSRDLILQLVEKILTNPKARTILVNGAVRKGERLIPPPSFEILLRLTFPASSARVKATERFEAIYPLLKEVALAGAPGSKAMKQVTQQIFTFALKLAGEGNPVLAKEATAIAIWSVTQNFDCCKHWDNLYKENLEASVAVLKKLVEEWKEHSVKLSSSPNDALTLNRTMKSFRLKNEEVITEGGANASLYKEADKSCKTISGRLSRGSGCLKGTAITLVFLAAAGAAAAAVLSSNPEVTNELKNLVDSLELHEYINKYTEVISTALKK”, the protein production result is “failed”.

Turning to “MDPLNLSWYDDDLERQNWSRPFNGSDGKADRPHYNYYATLLTLLIAVIVFGNVLVCMAVSREKALQTTTNYLIVSLAVADLLVATLVMPWVVYLEVVGEWKFSRIHCDIFVTLDVMMCTASILNLCAISIDRYTAVAMPMLYNTRYSSKRRVTVMISIVWVLSFTISCPLLFGLNNADQNECIIANPAFVVYSSIVSFYVPFIVTLLVYIKIYIVLRRRRKRVNTKRSSRAFRAHLRAPLKGNCTHPEDMKLCTVIMKSNGSFPVNRRRVEAARRAQELEMEMLSSTSPPERTRYSPIPPSHHQLTLPDPSHHGLHSTPDSPAKPEKNGHAKDHPKIAKIFEIQTMPNGKTRTSLKTMSRRKLSQQKEKKATQMLAIVLGVFIICWLPFFITHILNIHCDCNIPPVLYSAFTWLGYVNSAVNPIIYTTFNIEFRKAFLKILHC”, the protein production entry is reported as “failed”.

Take “MDPNKVEISRLEALPQDLLREIVAKIGVKSAEDYHNCILSCKELGASANDERVLKTLNLALLVKKPLSCRKHLLIMKKCLANNNPDAHYIKGIIWYFNLDHCDVDLHHIGIAANGGQKEAIYMYAMLLLCRGRTEEGKTYMSQLEWAKTPPWLKRVGNKSKLH”: the protein production entry was “failed”.

As for “MDPRKVNELRAFVKMCKQDPSVLHTEEMRFLREWVESMGGKVPPATQKAKSEENTKEEKPDSKKVEEDLKADEPSSEESDLEIDKEGVIEPDTDAPQEMGDENAEITEEMMDQANDKKVAAIEALNDGELQKAIDLFTDAIKLNPRLAILYAKRASVFVKLQKPNAAIRDCDRAIEINPDSAQPYKWRGKAHRLLGHWEEAAHDLALACKLDYDEDASAMLKEVQPRAQKIAEHRRKYERKREEREIKERIERVKKAREEHERAQREEEARRQSGAQYGSFPGGFPGGMPGNFPGGMPGMGGGMPGMAGMPGLNEILSDPEVLAAMQDPEVMVAFQDVAQNPANMSKYQSNPKVMNLISKLSAKFGGQA”, the protein production entry is “failed”.

Turning to “MDPVLLLSALLLLAFGLIGVGTAEPGLLQDHLLRVGAALLALVLGHLLPPRLLLRYALHALVGVLLLLVLVLLVGDGPGGVRRWFYLGPVALQPSELAKLALILYLSSFVGRRGEDYPILGPVLAVGSLVGLVLVEPDFATAAFLAGLAVLLFVLAGIPWPRLLGMGLAVALVVLPFSGLYLAQFRYVSERFANFVDYLQGESEPGGGAYQVVQAKKALLLGGPFGQGPGATLPHLPEAHNDMVFASVVFATGWLGGAVVFLLYTLILLRSLAVGLALKGGERLLALGLGLYLALQAALNIGVTLGVLPVTGVPLPLVSYGGSSLLVSGFAVGLLSRLAREAAERPRRKGVAR”, the protein production entry is given as “failed”.

With “MDQNVPISKKLWNIVRFLLYMIRKGVSKNKLIADFNATLKRGKNLMFHQRRRVHAGSTASAALNATSATASSRQEYEFSCSNTPNYSFPFSNMAFMRKKSHNNLFTCGQTPQTLDDDVAAARAVLELLNGVGEKGNVTPADLTVALSPYFPGFGQTPLVRPLRVTDSPFPLTPENGDVANGHVDKAADDFIKKFYKNLNQQKKMIEFS”, the protein production entry is reported as “failed”.

With “MDQSTLRHRITDQFSYRGERADIWRAFDLLFDTDEFLNLGYSEWYQPHIAGSSQRRLVTEVGSRVASHLPTTDGVRLLDVGCGRGGPALHLAYQFGFNVTGVDLVPYNIQMATENARGKHLDSEFIIGDATQLPFTRDSFTACTAIDALVYLPERNRVFATVADTLEPEGVLVVSDLVMQSDVTETERRLVDSFADAWDMPSLGTVEGYKAALDETSFELKAVEDITKHSVGRFRKWTTLYLQLLTSPLRALIERLLGAYDLDPPAITEQVRKAHHALPFLRHVIFVAELETT”, the protein production result is “failed”.

With “MDRDELVRYLDAYLRIQDFPQDPSLNGLQVEGKRTVRKVGAAVDAGEAIFRKALEEEVDFLIVHHGLFWGKPFPIVGHHKRRLETLFQGGINLYAAHLPLDAHEEVGNNFVLARELGLVDLTPWDVGVKGRFPQPTPLLQVADRLGQLTGMQPLVHQGGLDHVETVILVSGSGTGLLPKVDADLFVTGEPKHSVFHETFERGLNVIYAGHYDTETFGVKALAAHLEARFGLPWVFLDHPTGL”, the protein production entry is reported as “not failed”.

Take “MDRDSSMQAKNLDAQCNPDLKMASANSETLASATHELKIMDVEGGALVDPDHIEEVETSMVIVVDDDDGDVAMVVEEDKHPMRDDPCIEDIMDDEHAPLVAELQSALNNPDDKQASEDPLLEDQEREPDAMSTKTEPSSDAESSHSYHDPMGLLERIEIHDPGDSQDDDDEDDESSNGGGVDGGMRRKMPRAQRWLLWMKRWPWILHEDSDGTLAFCLYCNISINVNNRSRHIQQHNVSLSHQERECNYLAFKKSEEETRGAISDNEIKHEFGTKSYVAAMKQKRISETEAFNNFNWLRWLRWHPWLERSMPTGTIGTCRICSVRMNVEFVYLRKRHETTKGHMEALRNLDSDKRSRKRKRSKSNSVTNSGGDEAEREKESEPEVGPEDAQDTPVVMMNGDVDSGDDPGKWCALIPDTNPQQCRCTLCNCTMAITSFLRHCKTRAHCHMLSTPAEKGSSDIRGIWAVFADMHPWLIADPEDPSIGYCSVCRKRFMYGNSEIKRKNHEKSEKHTLALASAKAGIEVGSADGRGGDNMDEEEAAASDQAQSSQTDDSEDNDDDNWSEIQKLGKGFAHKSSSEPRKATVRAGVRFYPWLCYSKDRKTQICKFCRVRFHNEAAKARHELSARHVKLVKQFKMRQAKLHQGTNTQTKHNAQDDEESQEQDEEYGEEEEDAEEDSQSNFDLGTVQARKTARADNKLFVKPIPATMKGKVMVWKGRFPWLSYKKNEQRGNYAWCKLCEVSLYLPSSKWASKHQRTSRHIRLRIDRKRNGGNPLKTSNKNSGEISTVVATASALASAEARQKAAMAELQAKYDWLDPDANDENHCHCRVCDSRLPIKVFYLRQHDASRKHVENKERQRANAAAAANAPSVSPTSTVDAERQESGMDKESENDMSVRSDGSTAEPLAKRSRRSMEVRRIIRALRDSMGKRQEERSQMDMARDMICSSFDIVTRLRTLERESVAHNESMAQAPPSVTVSPIKPPEPRHVMDLFFDSISPTMKSLPPDLAAEGKSKIMQLVCSLELRAMQRNATTPTPATVSASSKWPSSTTVTPVKTPPAPISAPLASVDADLHSSVVTTPHEYNNGQNNNNDKETVPKEPVTGASSAQVTINGSAKDLPENIRRILTSNQTQVTNRLETDSVRCVPLDKLTTQSRTNVNGRLSQGGTSEAPSTPQADLSNGNTLAMIRQIRVNNNNSSKITVTNTPQMQQPQQAQASITSSTPIMRGGPSSNGCQITTFRTMVNHNRRP”: the protein production result is reported as “failed”.

On to “MDREQVVALQHQRFAAKKYDPNRRISQKDWEALVEVGRLAPSSIGLEPWKMLLLKNERMKEDLKPMAWGALFGLEGASHFVIYLARKGVTYDSDYVKKVMHEVKKRDYDTNSRFAQIIKNFQENDMKLNSERSLFDWASKQTYIQMANMMMAAAMLGIDSCPIEGYDQEKVEAYLEEKGYLNTAEFGVSVMACFGYRNQEITPKTRWKTEVIYEVIE”, for which the protein production entry is recorded as “not failed”.

Regarding “MDRHEYEHRIINRIVENHGRDTRQLLSILREVQHEFRQVSPEAQQKVAESLGVCITQVRAVVDFYSFLSTVPLGKFDIRISDSITDHMLGSREVAAGLCRKLGIQPGEPRQDGRVGLSFTSCTGLCDQGPAGLINGYAIPRLTEDRTDQIARLINDDIPLGEWPEEFFAIKENIRLADRLLGNPVRPGEALERTLALDRETMFGEIETSQLRGRGGAGFNTAWKWRFCYEGPETAAVCPPGQPAAGIERYVVCNADEGEPGTFKDRVLLQSCADQVFEGMTVCAYLVGAKQGFLYLRGEYLYLHDQLEAVLAARRRHGLLGKSILGREGFDFDIEIRLGAGAYICGEESALIESLEGNRGVPRNRPPYPVTHGYLGKPTVVNNVETFFAAAAIAVHGGEWFAEVGTEKSKGTKLLSICGDCARPGIYEYPFGVTIRQVLEDCGAADVLGVQIGGPSGTFLSDKECDRKLAYEDLATGGSFIVFDRTRDVIGIARNFTHFFAHESCGFCTPCRVGTALLKNLLDKIAEGHGATGDLAELSRLGRFVRSASHCGLGQTAANPILSTLERYPEIYQARLKTIDFEPGFDLDGALATARRLSGRDDANAHLSQS”, the protein production entry is “failed”.

Consider “MDRSLQSTHAKLVARDIQRLTQSPTESNSFSLLGGACVSRVEIVGTIVSRDLTPKFLKFGVDDGTGCVTCVMWLNQLTSSYFSRWDPATILLLASAARKQAAQIRIGAVARVRGRVGSYRGVMQITANVAVAERDPNAEILHWLECLKLGQSCYRVRIQS”, for which the protein production result is given as “failed”.

As for “MDRTEQKSIIEGLLFVSGDEGIYPEQIAKVLEIEGNEVIDILEEMQKECEGAHRGLQIVQYAKVYRFATKKEHASYYQKLIEIPTAASLSQAALETLAIVAYRQPITRTEMEEIRGVKTDKALQTLVSHLLIKEMGRAEGPGRPILYGTTKEFLDTFGLKTLDDLPPLSEENEQMNEADLFFGSLQEISK”, the protein production result is recorded as “failed”.

As to “MDRTQFTKIFTRYYMRSTSLGIIFTLFACAIRGVNLVVYLPYVLSASTCFTYLWASRTFTLEQKHQSVVIALILGYTLTFYLYFFLGGHFLFSSLVTINLLLTMVEFGVFWSFFTYALSMTFCFYIDLITAGNDPFKLHALKEFFIQSTFLFLFNLFIYKGLRSIECYWHGIWQKQYEQVEKLERLLEIDELTGCYSRFKGNQLIEQQIQRAQPFTLLYIDLDGFKAVNDEFGHDAGDKVLQITAQRILHLLDDGQFATRIGGDEFILCLPNIEDTKELEQFQSLLHHACSAPIFIHFQNVHIGLSVGMARFPHEGSCSDSLIQHADQMMYLTKRSRT”, the protein production result is “failed”.

For the sequence “MDSEGFSPSIYTDKTGHPTIGYGYNLSVYSYEGKRITKTYGLLTDILSYGWYKNLDAMRRMVILDLSYNLGLNGLLKFKQFIKAIEDKNYALAVERLQKSPYFNQVKKERQGIWKF”, the protein production entry is on record as “failed”.

“MDSENAVKTTYGEFNGKKPFAVMLLGTDTGALDRTEKRGNTDTIIVVVVNPKKKNYTMISIPRDTMADMVGDDSNDVQKINAAYSIGGAKMAMKTVSNLLNIPVKYYALVNMGGLMKLVDYVGGIYVTPPLTFTYSGFPFKKRVRQHLNGQAALAYSRMRYDDPQGDYGRQKRQREVITKLVQKLATADSLTNFSKIANNLSSNVKTNLSFQALKSILANYSDCTSSSDSDYLHGYSTYVNDAAYQIAPTSELQRISNKIRKLLGLKTATVSNRETELNTLNETAGFKFGSGETQNYTLEHHHHHH”: the protein production result was “failed”.

For the origin of these results see a protein production outcome set (Wang et al. 2014).
